Drawing on article PMC5942590, this text covers stoichiometry N for one substance.

Experiment [1] deals with HSV-1 glycoprotein B construct gBΔ71 (residues 72-904) (Herpes Simplex Virus type 1 (HSV-1)) (UniProt P06437). The experiment in a line: crystal structure.
Experiment [2] shares this target. The experiment in a line: crystal structure. This is another data set of the same source.

Read-outs that look alike come from different tables or passages of the source.

For the substance “HSV-1 glycoprotein B construct gBΔ71 (residues 72-904) (from UniProt P06437 72-904) (natural protein)”, the stoichiometry N in experiment [1] and in experiment [2] was 3 in each case.

For orientation: stoichiometry N means the number of molecules, sites or subunits per partner or assembly.
